Data from article PMC8486240.

B1: Mutant-Probe1 (dsDNA)
DNA 1: TGAAATGATGATAAGAGTGGAGATATATGGCCTGGAAAAC
DNA 2: GTTTTCCAGGCCATATATCTCCACTCTTATCATCATTTCA
B2: Probe1 unlabelled (cold competitor) (dsDNA)
DNA 1: TGAAATGATGATAAGCACATGGATATATGGCCTGGAAAAC
DNA 2: GTTTTCCAGGCCATATATCCATGTGCTTATCATCATTTCA

Tests used:
PpbHLH1 [1] = target: T1, PpbHLH1 (Prunus persica, UniProt M5W438 1-344); assay: EMSA
PpbHLH1 [2] = target: T1, PpbHLH1; assay: competition

| Binder | binding result (PpbHLH1 [1]) | binding result (PpbHLH1 [2]) |
| --- | --- | --- |
| B1 | no binding | – |
| B2 | – | binds |
